Assay in all cases: fluorescence polarisation
For orientation: In fluorescence polarisation assays a small probe gives low polarisation when free and higher when bound to something large.

Assay [1] addresses fluorescein-labeled CaV1.2 IQ peptide WT (residues 1644-1666) (rat).
Assay [2] has as its target fluorescein-labeled CaV1.2 IQ peptide K1662E (rat).
Assay [3] deals with fluorescein-labeled CaV1.2 IQ peptide K1647A (rat).
Assay [4] concerns the target fluorescein-labeled CaV1.2 IQ peptide K1647E (rat).
The target in assay [5] is fluorescein-labeled CaV1.2 IQ peptide WT (residues 1644-1666) (rat). This is another data set of the same source.

By Kd is commonly meant the equilibrium constant for the complex coming apart. The low end stands for higher affinity, the high end for lower affinity.

Positions count from the first letter of the chain named. Names may count otherwise. “And” between values parts separate entries of the source, which are not always exact repeats. Identical values can stand only once.

As to “Ca2+-free calmodulin (apoCaM) (from UniProt P0DP33 1-149) (natural protein)”, the Kd in assay [1] is 10 µM and 2.6 µM. Besides, the fold decrease in binding affinity against the WT pair in assay [2] is above 5 fold. For “apoCaM mutant E88K (from UniProt P0DP33 3-149) (natural protein)”, the fold decrease in binding affinity against the WT pair in assay [1] is above 5 fold. “apoCaM mutant F90A (from UniProt P0DP33 3-149) (natural protein)” came in with a fold decrease in binding affinity against WT apoCaM in assay [1] of 3.3 fold.

B1: α-actinin-1_EF34 (residues 822-892) (domain or fragment)
chain: DTDTADQVMASFKILAGDKNYITMDELRRELPPDQAEYCIARMAPYTGPDSVPGALDYMSFSTALYGESDL
For B1, the fold increase of Kd against the WT IQ peptide in assay [3] and in assay [4] was 5 fold each time.

B2: α-actinin-1 EF3/4 mutant F833A (domain or fragment)
chain: B1 chain with F12A
Molecule B2 returned a fold decrease in binding affinity against WT α-actinin-1 EF3/4 in assay [5] of 8 fold.

B3: α-actinin-1_EF34 mutant E847K/E851K (domain or fragment)
chain: B1 chain with E26K, E30K
B3 returned a fold increase of Kd against WT α-actinin-1 EF3/4 in assay [5] of 12 fold.

For the origin of these results see paper doi:10.1101/664102.
